The values that follow come from article PMC3866644 (RNA, 2014).

Substitutions are numbered along the chain they refer to. Names and notes keep the numbering of the source.

Common to all, as to test: pull-down
Experiment [1] concerns the target T1, His6 fusion Prp28 (yeast, UniProt P23394 1-588).
T1 sequence: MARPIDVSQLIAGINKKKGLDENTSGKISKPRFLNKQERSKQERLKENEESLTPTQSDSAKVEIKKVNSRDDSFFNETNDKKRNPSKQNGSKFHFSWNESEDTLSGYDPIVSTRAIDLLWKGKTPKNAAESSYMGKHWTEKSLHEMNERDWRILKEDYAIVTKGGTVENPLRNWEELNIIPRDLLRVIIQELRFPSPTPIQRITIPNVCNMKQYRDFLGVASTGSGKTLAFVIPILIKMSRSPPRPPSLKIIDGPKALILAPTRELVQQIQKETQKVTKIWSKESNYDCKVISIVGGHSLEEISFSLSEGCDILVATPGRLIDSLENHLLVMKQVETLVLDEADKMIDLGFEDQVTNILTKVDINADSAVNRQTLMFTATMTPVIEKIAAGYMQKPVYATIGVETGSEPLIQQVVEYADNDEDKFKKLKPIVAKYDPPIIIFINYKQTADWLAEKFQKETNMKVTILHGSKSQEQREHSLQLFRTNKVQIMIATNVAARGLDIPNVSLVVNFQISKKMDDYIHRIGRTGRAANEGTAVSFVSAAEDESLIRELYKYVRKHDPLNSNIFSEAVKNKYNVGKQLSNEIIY

Experiment [2] concerns the target T2, His6 fusion Prp39, full-length (yeast, UniProt P39682 1-629).
T2 sequence: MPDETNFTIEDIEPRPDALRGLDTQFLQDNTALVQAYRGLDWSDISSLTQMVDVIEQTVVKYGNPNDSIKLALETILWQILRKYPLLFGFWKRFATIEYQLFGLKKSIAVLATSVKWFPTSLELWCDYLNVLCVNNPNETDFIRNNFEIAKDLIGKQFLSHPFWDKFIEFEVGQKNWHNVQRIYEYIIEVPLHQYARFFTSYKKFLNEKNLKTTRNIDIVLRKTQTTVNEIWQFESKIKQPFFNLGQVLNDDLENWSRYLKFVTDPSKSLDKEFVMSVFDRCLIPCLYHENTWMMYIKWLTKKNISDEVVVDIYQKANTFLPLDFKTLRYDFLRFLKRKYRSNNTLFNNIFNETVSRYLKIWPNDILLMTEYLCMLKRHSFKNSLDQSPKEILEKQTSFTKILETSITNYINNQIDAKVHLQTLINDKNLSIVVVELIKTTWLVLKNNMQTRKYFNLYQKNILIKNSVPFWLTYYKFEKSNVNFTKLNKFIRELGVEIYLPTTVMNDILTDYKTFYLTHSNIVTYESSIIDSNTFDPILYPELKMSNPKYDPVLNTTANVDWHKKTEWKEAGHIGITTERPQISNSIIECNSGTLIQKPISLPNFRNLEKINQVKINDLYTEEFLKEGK

Experiment [3] addresses T3, His6 fusion Prp40, full-length (yeast, UniProt P33203 1-583).
T3 sequence: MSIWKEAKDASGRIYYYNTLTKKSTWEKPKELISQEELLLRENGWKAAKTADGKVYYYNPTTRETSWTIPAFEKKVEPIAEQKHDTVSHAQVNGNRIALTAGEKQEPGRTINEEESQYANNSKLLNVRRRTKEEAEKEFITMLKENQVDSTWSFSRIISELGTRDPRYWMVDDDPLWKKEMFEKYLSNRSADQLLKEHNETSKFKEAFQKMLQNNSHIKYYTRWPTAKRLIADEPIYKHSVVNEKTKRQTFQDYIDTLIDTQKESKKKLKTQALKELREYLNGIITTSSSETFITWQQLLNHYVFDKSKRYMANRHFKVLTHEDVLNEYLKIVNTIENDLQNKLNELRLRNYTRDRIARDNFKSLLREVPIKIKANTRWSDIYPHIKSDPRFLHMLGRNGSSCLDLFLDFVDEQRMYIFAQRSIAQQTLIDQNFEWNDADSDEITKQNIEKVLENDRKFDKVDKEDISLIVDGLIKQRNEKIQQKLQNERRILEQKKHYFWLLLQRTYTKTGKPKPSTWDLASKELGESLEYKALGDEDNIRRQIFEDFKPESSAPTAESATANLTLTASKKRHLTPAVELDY

B1: GST-fusion Prp8-NTD (Prp8 residues 1-330), wild-type sequence (domain or fragment)
chain: not shown
In the case of B1, the binding result in experiment [1], in experiment [2] and in experiment [3] was “binds” in each case.

B2: GST-fusion Prp8-NTD(P263L/W279G) (domain or fragment)
chain: MSGLPPPPPGFEEDSDLALPPPPPPPPGYEIEELDNPMVPSSVNEDTFLPPPPPPPSNFEINAEEIVDFTLPPPPPPPGLDELETKAEKKVELHGKRKLDIGKDTFVTRKSRKRAKKMTKKAKRSNLYTPKAEMPPEHLRKIINTHSDMASKMYNTDKKAFLGALKYLPHAILKLLENMPHPWEQAKEVKVLYHTSGAITFVNETPRVIEPVYTAQWSATWIAMRREKRDRTHFKRMRFPPFDDDEPPLSYEQHIENIEPLDLINLPLDSQDDEYVKDGLYDSRPLEEDSKKVNGTSYKKWSFDLPEMSNLYRLSTPLRDEVTDKNYYYL
On to B2, for which the binding result in experiment [2] and in experiment [3] was “binds” in each case.

B3: GST-fusion Prp8-NTD(D273G) (domain or fragment)
chain: B2 chain with L263P, D273G, G279W
For B3, the binding result in experiment [2] and in experiment [3] was “binds” throughout.

B4: GST-fusion Prp8-NTD(R226G) (domain or fragment)
chain: B2 chain with R226G, L263P, G279W
For the molecule B4, the binding result in experiment [2] and in experiment [3] was “binds” throughout.
